Experimental data from the nanobody polyreactivity screen of Harvey et al. (2022).

assay: yeast display, Sf9 membrane polyspecificity reagent, FACS + sequencing; frameworks hold sequencing errors
How it was run: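 In a synthetic yeast display library (Saccharomyces cerevisiae BJ5465), nanobody expression was induced with galactose for 36–48 hours. FACS gates were set low and high (top ~1%) using anti-HA fluorescence for expression and streptavidin fluorescence for binding of the Sf9 membrane reagent. Each polyreactivity label is drawn from the gate of origin.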

Sequence	polyreactivity (PSR sort gate)
QVQLVESGGGLVQAGGSLRLSCAASGSIFGYYVMGWYRPAPGKERELVAAITRSGSTYYADSVKGRFTISRDNAKNTVYLQMNSLKPEDTAGYYCAADGSYYWYPHTTYDYWGQGTQVTVSS	low polyreactivity
QVQLVESGGGLVQAGGSLRLSCAASGSIFHANAMGWYRQAPGKERELVAAITRSGRSTYYADSVKGRFTISRDNAKNTVYLQMNSLKPEDTAVYYCAARYYAGGLSSYDYWGQGTQVTVSS	high polyreactivity
QVQLVESGGGLVQAGGSLRLSCAASGSIFHGNAMGWYRQAPGKERELVAAITGRGVSTYYADSVKGRFTISRDNAKNTVYLQMKSLKPEDTAVYYCAAVRSKYWYYQGGYSSYGYWGQGTQVTVSS	high polyreactivity
QVQLVESGGGLVQAGGSLRLSCAASGSIFHIYAIGWYRQAPGKERELVAAISWRGDSTSYADSVKGRFTISRDNAKNTVYLQMNSLKPEDTAVYYCARGYGGYRGYYAKRFGYWGQGTQVTVSS	high polyreactivity
QVQLVESGGGLVQAGGSLRLSCAASGSIFHLYAMGWYRQAPGKEREFVAAISSSGGRTYYADSVKGRFTISRDNAKNTVYLQMNSLKPEDTAVYYCATAEQYGTKLRQVSYQYDYWGHGTQVTVSS	low polyreactivity
QVQLVESGGGLVQAGGSLRLSCAASGSIFHPYAMGWYRQAPGKERELVAAISGGGTNTYYADSVKGRFTISRDNAKNTVYLQMNSLKPEDTAVYYCAAERYYWGQGTQVTVSS	high polyreactivity
QVQLVESGGGLVQAGGSLRLSCAASGSIFHPYAMGWYRQAPGKERELVAAISKSGGNTYYADSVKGRFTISRDNAKNTVYLQMNSLKPEDTAVYYCAALDYWGQVTQVTVSS	low polyreactivity
QVQLVESGGGLVQAGGSLRLSCAASGSIFHPYGMGWYRQAPGKERELVARISWSTSSTNYADSVKGRFTISRDNAKNTVYLQMNSLKPEDTAVYYCAADYYVFPGYDYWGQGTQVTVSS	high polyreactivity
QVQLVESGGGLVQAGGSLRLSCAASGSIFHPYGMGWYRQAPGKVRELVAAMTSSGGDTYYADSVKGRFTISRDNAKNTVYLQMNSLKPEDTAVYYCAATGLPGYYAYDYWGQGTQVTVSS	low polyreactivity
QVQLVESGGGLVQAGGSLRLSCAASGSIFHRNTMGWYRQAPGKEREFVAGISWGGGRTYYADSVKGRFTISRDNAKNTVYLQMNSLKPEETAVYYCAAKTGGGGRLSTVYYWGQGTQVTLSS	high polyreactivity
QVQLVESGGGLVQAGGSLRLSCAASGSIFHRYAMGWYTQAPGKERELVAAISWSGGSTYYADSVKGRFTISRDNAKNTVYLQMNSLKPEDTAVYYCNRVAWNYGFGSSAYGYWGQGTQVTVSS	high polyreactivity
QVQLVESGGGLVQAGGSLRLSCAASGSIFHYNAMGWYIQAPGKERELVASISSGGRTYYADSVKGRFTISRDNAKNTVYLQMNSLKPEDTAVYYCAAENFWQTKEYDYWGQGTQVTVSS	low polyreactivity
QVQLVESGGGLVQAGGSLRLSCAASGSIFIANAMGWYRKAPGKERELVAAISRSGSTTYYADSVKGRFTISRDNAKNTVYLQMNSLKPEDTAVNYCNARYSLHSYYWFIYDSWGQGTQVTVSS	low polyreactivity
QVQLVESGGGLVQAGGSLRLSCAASGSIFIANTMGWYRQAPGKERELVAAISSDGGSTYYADSVKGRFTISRDNAKNTVYLQMNSLKPVDTAVYYCAVDGLEIGDTGFDYWGQGTQVTVSS	low polyreactivity
QVQLVESGGGLVQAGGSLRLSCAASGSIFIAYGMGWYRQEPGKERELVAAITVSGGNTYYADSVKGRFTISRDNAKNTVYLQMNSLKPEDTAVYYCAADYWYYYGKVLYDYWGQGTQVTVSS	low polyreactivity
QVQLVESGGGLVQAGGSLRLSCAASGSIFIGYAMGWYRQAPGKERELVAAITNGGRTYYADSVKGRFTISRDNAKNTVYLQMNSLKPEDTAVYYCAAVPSQTYRRTPYLWHDYWGQGTQVTVSS	high polyreactivity
QVQLVESGGGLVQAGGSLRLSCAASGSIFIIYAMGWYRQAPGKERALVAAISRGGTSTYADSVKGRFTISRDNAKNTVYLQMNSLKPEDTAVYYCNARRSSRTNRYNYWGQGTQVTVSS	high polyreactivity
QVQLVESGGGLVQAGGSLRLSCAASGSIFIPYAMGWYRQAPGKERELVAAIRDSGASTYYADSVKGRFTISRDNAKNTVYLQMNSLKPEDTAVYYCAVRFYDWRYYYWGQGTQVTVSS	high polyreactivity
QVQLVESGGGLVQAGGSLRLSCAASGSIFIPYAMGWYRQAPGKERELVAAISRRGGSTYYADSVKGRFTISRDNAKNTVYLQMNSLKPEDTAVYYCNKDVNAYGYFEYYYWGQGTQVTVSS	low polyreactivity
QVQLVESGGGLVQAGGSLRLSCAASGSIFIRNAMGWYRQAPGKERELVAAISWGGARTYYADSVKWRFTISRDNAKNTVYLQMNSLKPEDTAVYYCNALNVRGNKFDYWGQGTQVSVSS	high polyreactivity
QVQLVESGGGLVQAGGSLRLSCAASGSIFIRNAMGWYRQAPGKERELVASISRSGAYTRYADSVKGRFTISRDNAKNTVYLQMNSLKPEDTAVYYCAVRLVNYLSYWRTYNYWGQGTQVTVSS	high polyreactivity
QVQLVESGGGLVQAGGSLRLSCAASGSIFIRNVMGWSRQAPGKERELVAAISSRGGSTYYADSVKGRFTISRDNAKNTVDLQMNSLKPEDTAVYYCNRYSYLFPYYWKYDYWGQGTQVTVSS	high polyreactivity

Sequence	polyreactivity (PSR sort gate)
QVQLVESGGGLVQAGGSLRLSCAASGSIFISNAMGWYRQAPGKERELFAAINWTTGRTRYADSVKGRFTISRDNAKNTVYLQMNSLKPEDTAVYYCAARPYGGGRRSIYYYWGQGNQVTVSS	high polyreactivity
QVQLVESGGGLVQAGGSLRLSCAASGSIFISNAMGWYRQAPGKERELVAAISRSGARTYYADSVKGRFTISRDNAKNTVYLQMNSLKPEDTAVYYCAVDGYSPYKYDYWGQGTQVTVSS	high polyreactivity
QVQLVESGGGLVQAGGSLRLSCAASGSIFISNAMGWYRQAPGKERELVAAITSSGGSTYYADSVKGRFTISRDNAKNTVYLQMNSLKPEDTAVYYCAARPGRNYYYWGQGTQVTVSS	high polyreactivity
QVQLVESGGGLVQAGGSLRLSCAASGSIFITYAMGWYRQAPGKERELVAAIRDSGDRTYYADSVKGRFTISRDNAKNTVYLQMNSLKPEDTAVYYCTARCQEPLKYDYSGQGTQVTVSS	low polyreactivity
QVQLVESGGGLVQAGGSLRLSCAASGSIFITYAMGWYRQAPGKERELVAAITDSGDSTYYADSVKGRFTISRDNAKNTVYLQMISLKPEDTAVYYCAKRYYGSYSHFIRTDGYWGQGTQVTVSS	low polyreactivity
QVQLVESGGGLVQAGGSLRLSCAASGSIFITYARGWYRQAPGKERELVAAIRDSGDRTYYADSVKGRFTISRDNAKNTVYLQMISLKPEDTAVYYCNARWQEPLKYDYWGQGTQVTVSS	low polyreactivity
QVQLVESGGGLVQAGGSLRLSCAASGSIFIVNDMGWYRQAPGKERELVAAISGRGGNTNYADSVKVRFTISRDNAKNTVYLQMNSLKPEDTSVYFCAARHTRDYDYWGQGTQVTVSS	high polyreactivity
QVQLVESGGGLVQAGGSLRLSCAASGSIFIVYAMGWYRQAPGKERELVAAISWSGGSTYYADSVKGRFTISRDNAKNTVYLQMNSLKPEDTAVYYCAAKYTLPFRDVKYYSWGQGTQVTVSS	high polyreactivity
QVQLVESGGGLVQAGGSLRLSCAASGSIFIVYAMGWYRQAPGKERELVAGIRGRGGSTYYADSVKGRFTISRDNAKNTVYLQMNSLKPEDTAVYYCAANPRSYQSPYGYWGQGTQVTVSS	high polyreactivity
QVQLVESGGGLVQAGGSLRLSCAASGSIFIVYAMGWYRQAPGKERELVATITSGGSTNYADSVKGRFTISRDNAKNTVYVQMNSLKPEVTAVYYCAAESYWGSGVVPGYDYWGQGTQVTVSS	low polyreactivity
QVQLVESGGGLVQAGGSLRLSCAASGSIFIWNALGCYRQAPGKERELVAAIRSSGGTTYYADSVKGRFTISRDNAKYTVYVQMNSLKPEDTAVYYCARRGYSSSYRYPRYYYWGQGTQVTVSS	high polyreactivity
QVQLVESGGGLVQAGGSLRLSCAASGSIFIWNAMGWYRQAPGKERELVAAISFSGGSTYYADSVKGRFTISRDNAKNTVYLQMNSLKPEDTAVYYCAADSFSGRYYWWEYDYWGQGTQVTVSS	low polyreactivity
QVQLVESGGGLVQAGGSLRLSCAASGSIFIWNAMGWYRQAPGKERELVAAISFSGGSTYYADSVKGRFTISRDNAKNTVYLQMNSLKPEDTAVYYCAADSYSGRYYWWEYDYWGQGTQVTVSS	low polyreactivity
QVQLVESGGGLVQAGGSLRLSCAASGSIFIYNARGWYRQAPGKERELVAAINWTGGSTYYADSVKGRFTISRDNAKNTVYLQMNSLKPEDTAVYYCNALRYGSTRGYDYWGQGTQVTVSS	high polyreactivity
QVQLVESGGGLVQAGGSLRLSCAASGSIFIYYAMGWYRQAPGKERELVAAISFSGARTYYADSVKGRFTISRDNAKNTVFLQMNSLKPEDTAVYYCNVEIGTGDYDYWGQGTQVTVSS	low polyreactivity
QVQLVESGGGLVQAGGSLRLSCAASGSIFKANAMGWYRQAPGKESELVATITSSGTRTYYADSVKGRFTISRDNAKNTVYLQMNSLKPEDTAVYYCNARAYPYQRGRYGYWGQGTQVTVSS	high polyreactivity
QVQLVESGGGLVQAGGSLRLSCAASGSIFKEYAMGWYRQAPGKERELVATISWSGGSTYYADSVKGRFTISRDNAKNTVYLQMNSLKPEDTAVYYCNKRTPWWYVVRYDYWGQGTQVTVSS	high polyreactivity
QVQLVESGGGLVQAGGSLRLSCAASGSIFKGNAMGWYRQAPGTERELVASITRSVARTYYADSVKGRFTISRDNAKNTVFLLMNSLKAEDTAVYYCAADWYQWGGRYYAPRYYYWGQGTQVTVSS	high polyreactivity
QVQLVESGGGLVQAGGSLRLSCAASGSIFKGYAMGWSRQAPGKERELVASITSSGGSTYYADSVKGRFTISRDNAKNTVYLQMNCLKPEDTAVYYCATDHDSVRVLVSSTSDYDYWGQGTQVTVSS	low polyreactivity
QVQLVESGGGLVQAGGSLRLSCAASGSIFKPYAMGWYRQAPGKERELVAAINRGGTSTYYADSVKGRFTISRDNAKNTVYLQMISLKPEDTAVYYCAAPNRYSVPMYYWGQGTQVTVSS	low polyreactivity
QVQLVESGGGLVQAGGSLRLSCAASGSIFKQYAMGWYRQAPGKERELVARITGSGGSTYYADSVKGRFTISRDNAKNTVYLQLNSLKPEDTAVYYCANKRYARSSGGYDYWGQGTQVTVSS	low polyreactivity
